In the nanobody polyreactivity screen of Harvey et al. (2022):

Assay: yeast display, Sf9 membrane polyspecificity reagent, FACS + sequencing; frameworks hold sequencing errors
Summary of the method: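 Galactose induction of a Saccharomyces cerevisiae BJ5465 synthetic nanobody display library ran 36–48 hours. The cells were then stained for 1 hour at 4 °C with 10% biotinylated, detergent-solubilized Sf9 membrane reagent, pulled down on streptavidin microbeads and FACS-sorted into low and high (top ~1%) gates on expression and reagent-binding fluorescence. Labels for polyreactivity follow the gate of origin.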

| Sequence | polyreactivity (PSR sort gate) |
| --- | --- |
| KVQLVESGGGLVQAGGSLGLSCAASGSIFPSNFMGCYRQAPGKERELFAAISNTGSTYYADSVKGRVTISRDNAKNTVYLQMNSLKPEDTAVYYCAAEYWSYAHGGQLYGYDYWGQGSQVTVSS | low polyreactivity |
| KVQLVESGGGLVQAGGSLRFSCAASGFIFRNYAMGWYRQAPGKERELVAAITARGTRTYYSDSVKGRFTISRDNAKNTVYLQMNSLKPEDTAVYYCAAVVLPSRQYDYWGQGTQVTVSS | high polyreactivity |
| KVQLVESGGGLVQAGGSLRFSCAASGSTFYIYAMGWYRPAPGKERELVATISSTGSTHYADSVKGRFTLSRDNAKNTVYLQMISLKPEDTAVYYCNPVYFGRYSRRDHWGQGTQVTVSS | high polyreactivity |
| KVQLVESGGGLVQAGGSLRLSCAASGFTFLRYAMGGYRQAPGKERELVAAIRFSGGSTYYADSVKGRFTISRDNAKNNVYLQMNSLKPEDTAVYYCAAYIRSYGYDYWGQGTKVTVSS | high polyreactivity |
| KVQLVESGGGLVQAGGSLRLSCAASGIIFNLYAMGWSRQAPGKERELVAAITSSGTSTYYADSVKGRFTISRDNAKNTLYLQMNSLKPEDTAVYYCAADRGFYYFVEYDYWGQGTQVTVSS | high polyreactivity |
| KVQLVESGGGLVQAGGSLRLSCAASGRTFRTYAMGWYRQAPGKERELVAANSSGGSTNYADSVKGRFTISRDNAKNTVYLQMNSLKPEDTSVYYCATRPTSDFVKRRVYEWLDYWGQGTQVTVSS | low polyreactivity |
| KVQLVESGGGLVQAGGSLRLSCAASGRTFWYYAMGWYRLSPGKERELVAVITSVSSTYYADSVKGRFTISRDNAKNTVYLQMNSLKPEDTAVYYCAVGRTYRRYSAASYNYWGQGTQVTVSS | high polyreactivity |
| KVQLVESGGGLVQAGGSLRLSCAASGSIFDYYAMGWYRQAPGKEREFVAAISISGGSTNYADSVKGRFTISRDNAKNTVYLQMNSLKPEDTAVYYCAATSRWSSYGFYVQYNYWGQGSQVTVSS | high polyreactivity |
| KVQLVESGGGLVQAGGSLRLSCAASGSILSPNAMGWYRQAPGKERELVAAINSGGGSTYYADSVKGRFTLSRDNAKNTVYLQMNSLKPEDTAVYYCAADHYYYRSRAYTYIIYDYWGQGTQVTVSS | low polyreactivity |
| KVQLVESGGGLVQAGGSLRLSCAASGSTFIGNAMGWYRQAPGKERELVAAISRTGGSTYADSVKGRFTISRDNAKNTVYLQMNSLKPEDTAVYYCNAVRWYYDYWGQGTQVTVSS | high polyreactivity |
| KVQLVESGGGLVQAGGSLRLSCAASGSTFRTYAMGWYRQAPGKERELVADITWRGGSTYYADSVKGRFTISRDNAKNTDYFQMNSLKPEDTAVYYCATDRGPEVVLYVYWGQGTQVTVSS | low polyreactivity |
| KVQLVESGGGLVQAGGSLRLSCAASGTSSRYVMGLYRQSTGKERELVAAISWSGDSTYYADSVKGRFTISRDNAKNTVNLQMNSLKPEDTAVYYRAKDADFGLGATSYLEYDYWGQGTQVTVSS | low polyreactivity |
| KVQLVESGGGLVQAGGSLRLSCDASGSIFTLNAMGWYRQAPGKARELVAAISSGGGTYYSDSVKGRFTISRDNAKNTVYLQMNTLKPEDSAVYYCAAEHYILDDYLCDYDYWGQGTQVTVSS | high polyreactivity |
| LDQLVESGGGLVQAGGSLRLSCAASGSIFGPNAMGWNRKAPGKERELVAAISWSGASTYYADSVKGRFTITRDNEKNTVYLQMNSLKPEDTAVYYCAADYYGVSGSGYGYWGQGTQVTVSS | low polyreactivity |
| LLQLQESGGVLVQAGCRLRLICAASGSISVTRAMCWYSQAPGKERELVASTTGGSNNADSVNGRFTISRDNAKTTVYLQMNSLKPEDTAVYYCATEYYGPVYDLDYDYCGQGTQVTVSS | low polyreactivity |
| LVQLQESGGGLVQAGGSLRLSCAASGTITPGGYKGWYRQAPGKERELVASINVGGSTNYADSVKGRFTISRDNAKKTVYLQMKSLKPEDNAVYYCAVWGRNRLQLSYWGQGTQVTVSS | low polyreactivity |
| LVQLQESGGGLVQEGGSLRMSCAASGTISPGGYMGWYRQAPGKERELVASINVGGSTNYADSVKGRFTISRDNAKNTVYLQMNSLKPEDNAVYYCAVWGRNRLQLSYWGQGTQVTVSS | low polyreactivity |
